Data as given in patent US20250051464A1.

How the values were obtained:
[1] = molecular target: Human EphA2 (ephrin receptor A2) (human) (UniProt P29317); test: IHC/IF score on frozen human tumor tissue, ER+ BRC
[2] = molecular target: Human EphA2 (ephrin receptor A2) (human) (UniProt P29317); test: IHC/IF score on frozen human tumor tissue, ANC
[3] = molecular target: Human EphA2 (ephrin receptor A2) (human) (UniProt P29317); test: IHC/IF score on frozen human tumor tissue, GAC
[4] = molecular target: Human EphA2 (ephrin receptor A2) (human) (UniProt P29317); test: IHC/IF score on frozen human tumor tissue, UCEC-clear cell
[5] = molecular target: Human EphA2 (ephrin receptor A2) (human) (UniProt P29317); test: IHC/IF score on frozen human tumor tissue, NSCLC-Adeno
[6] = molecular target: Human EphA2 (ephrin receptor A2) (human) (UniProt P29317); test: IHC/IF score on frozen human tumor tissue, ESC
[7] = molecular target: Human EphA2 (ephrin receptor A2) (human) (UniProt P29317); test: IHC/IF score on frozen human tumor tissue, UCEC-endometriod
[8] = molecular target: Human EphA2 (ephrin receptor A2) (human) (UniProt P29317); test: IHC/IF score on frozen human tumor tissue, NSCLC-SQ
[9] = molecular target: Human EphA2 (ephrin receptor A2) (human) (UniProt P29317); test: IHC/IF score on frozen human tumor tissue, UCEC-papillary
[10] = molecular target: Human EphA2 (ephrin receptor A2) (human) (UniProt P29317); test: IHC/IF score on frozen human tumor tissue, HNC
[11] = molecular target: Human EphA2 (ephrin receptor A2) (human) (UniProt P29317); test: IHC/IF score on frozen human tumor tissue, Her2+ BRC
[12] = molecular target: Human EphA2 (ephrin receptor A2) (human) (UniProt P29317); test: IHC/IF score on frozen human tumor tissue, RCC-papillary
[13] = molecular target: Human EphA2 (ephrin receptor A2) (human) (UniProt P29317); test: IHC/IF score on frozen human tumor tissue, URO
[14] = molecular target: Human EphA2 (ephrin receptor A2) (human) (UniProt P29317); test: IHC/IF score on frozen human tumor tissue, STS
[15] = molecular target: Human EphA2 (ephrin receptor A2) (human) (UniProt P29317); test: IHC/IF score on frozen human tumor tissue, CRC
[16] = molecular target: Human EphA2 (ephrin receptor A2) (human) (UniProt P29317); test: IHC/IF score on frozen human tumor tissue, RCC-clear cell
[17] = molecular target: Human EphA2 (ephrin receptor A2) (human) (UniProt P29317); test: IHC/IF score on frozen human tumor tissue, OVA
[18] = molecular target: Human EphA2 (ephrin receptor A2) (human) (UniProt P29317); test: IHC/IF score on frozen human tumor tissue, MELA
[19] = molecular target: Human EphA2 (ephrin receptor A2) (human) (UniProt P29317); test: IHC/IF score on frozen human tumor tissue, PANC
[20] = molecular target: Human EphA2 (ephrin receptor A2) (human) (UniProt P29317); test: IHC/IF score on frozen human tumor tissue, PROC
[21] = molecular target: Human EphA2 (ephrin receptor A2) (human) (UniProt P29317); test: IHC/IF score on frozen human tumor tissue, TNBC

Chain of Human EphA2 (ephrin receptor A2) (human) (P29317 24-976 limits assumed): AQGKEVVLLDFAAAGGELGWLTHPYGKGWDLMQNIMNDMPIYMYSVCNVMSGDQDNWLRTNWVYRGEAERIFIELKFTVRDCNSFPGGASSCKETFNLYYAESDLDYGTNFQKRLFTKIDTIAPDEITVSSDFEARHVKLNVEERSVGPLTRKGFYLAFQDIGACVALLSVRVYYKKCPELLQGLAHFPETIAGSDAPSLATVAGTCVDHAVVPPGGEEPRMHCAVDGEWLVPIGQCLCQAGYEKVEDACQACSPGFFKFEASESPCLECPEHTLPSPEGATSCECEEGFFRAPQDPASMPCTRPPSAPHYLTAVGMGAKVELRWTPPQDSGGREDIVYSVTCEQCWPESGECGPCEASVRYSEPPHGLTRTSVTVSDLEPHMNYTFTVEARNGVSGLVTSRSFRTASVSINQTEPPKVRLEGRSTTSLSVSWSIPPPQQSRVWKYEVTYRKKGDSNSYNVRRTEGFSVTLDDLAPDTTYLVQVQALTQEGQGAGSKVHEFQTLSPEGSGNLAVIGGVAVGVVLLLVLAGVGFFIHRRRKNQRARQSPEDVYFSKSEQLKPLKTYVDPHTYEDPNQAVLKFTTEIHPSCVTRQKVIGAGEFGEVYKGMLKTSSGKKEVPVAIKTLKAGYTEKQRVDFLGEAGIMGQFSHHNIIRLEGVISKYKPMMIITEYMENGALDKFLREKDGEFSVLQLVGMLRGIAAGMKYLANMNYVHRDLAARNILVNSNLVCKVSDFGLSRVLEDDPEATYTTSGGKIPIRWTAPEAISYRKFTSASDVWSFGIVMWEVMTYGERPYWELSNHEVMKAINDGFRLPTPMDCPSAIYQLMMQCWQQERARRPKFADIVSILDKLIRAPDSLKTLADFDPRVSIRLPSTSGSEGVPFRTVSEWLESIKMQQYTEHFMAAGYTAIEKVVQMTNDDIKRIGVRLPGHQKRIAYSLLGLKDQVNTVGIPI

IHC score [1] | IHC score [2] | IHC score [3] | IHC score [4] | IHC score [5] | IHC score [6] | IHC score [7] | IHC score [8] | IHC score [9] | IHC score [10] | IHC score [11] | IHC score [12] | IHC score [13] | IHC score [14] | IHC score [15] | IHC score [16] | IHC score [17] | IHC score [18] | IHC score [19] | IHC score [20] | Substance | other results
1 | 2 | 1 | 2 | 2 | 2 | 2 | 2 | 2 | 2 | 1 | 1 | 1 | 1 | 1 | 1 | 2 | 3 | 2 | 1 | MAB3035 (Gln25-Asn534) (antibody) | IHC score [21]: 1
1 | 1 | 1 | 2 | 1 | 1 | 1 | 1 | 2 | 1 | 1 | 1 | 1 | 1 | 1 | 1 | 1 | 2 | 1 | 1 | LS-C100255-400 (AA 30-60) (antibody) | IHC score [21]: 1
1 | 2 | 1 | 2 | 2 | 2 | 2 | 2 | 3 | 2 | 2 | 1 | 1 | 2 | 1 | 1 | 2 | 3 | 1 | 1 | LS-C36249-100 (extracellular) (antibody) | IHC score [21]: 1
1 | 1 | 1 | 2 | 2 | 1 | 1 | 2 | 1 | 1 | 1 | 1 | 1 | 1 | 1 | 1 | 1 | 2 | 1 | 1 | Ab73254 (extracellular) (antibody) | IHC score [21]: 1
1 | 1 | 1 | 2 | 2 | 1 | 1 | 1 | 2 | 1 | 1 | 2 | 1 | 1 | 1 | 1 | 1 | 2 | 1 | 1 | LS-B1794-50 (AA 450-500) (antibody) | IHC score [21]: 1
1 | 2 | 1 | 2 | 1 | 2 | 1 | 1 | 2 | 1 | 1 | 1 | 1 | 1 | 1 | 1 | 1 | 2 | 1 | 1 | 6997S (around Arg907) (antibody) | IHC score [21]: 1
